Test results: a protein production outcome set (Wang et al. 2014)

test: label from the status in PepcDB records
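Further: failed if final PepcDB status was selected cloned or expressed and not failed if soluble or beyond.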

Sequence | protein production
MSKFKSHNSNNTKQTINKHALIFGLISVFLSGIGFTIISPVIPFLVQPYINNPGNQAIIVTLLTSVYAICMFFSAPGLGALSDKYGRRPVLLVCLLGSSIGYLIFGIGGALWVLFAGRIIDGITGGTISTIFAYFADIIPENERTKYFGWVSAVVGVGTIIGPTLGGLLAKFGYSVPLYFGAIITLLNVVYGFFFMPESLDKNIRLKEITFVRLNPFTQLANLLSIKSLKRLLISAFLLWIPNGSLQAVFSQFTIDTFSWKPAIIGLMFSIMGFQDIISQSLIMPKLLVKLSDKYIAILGMISEVIGYSLIAASALFYFYPLFIAGMFIFGFGDSIFGPSFNGMLSKSVDSSEQGRIQGGSQSIQALARMIGPIIGGQIYVSLGHATPAFMGIVLITVAIPVLYKNIHINI | failed
MSKGYGVFGHVPDNADDDDLLPYEDDDSGVSWGHALRRRNPWKRGGDEGADYDDDRYGADDTDDTDDTNEDRSLFAGKSSGIGGISGEADGMLGGAGAAGSRAVTFGGTDSLSAADAVMPYRFRQGRSVWFEDEDEGHFAGAAKRAEAHAVPILALRNDVESSSSNAVLARARSIARKAATMVINPVYSENHRTGYAELDGILRGTTSPSSKYRTSVQFDLDTGEAVGGKCSCPAYGRGYGMCKHMIALAFIFCDDPQRFEGYRAGAVRPSRTLIDYMEHVDRQDAQAKARRRNALMRRFDTAKGRNGAGGRHTNSGYGSRAGTRGGGYQGDSETVGLGQVQLVPILSFIDGVWSVEFKIGSTSNGSSYVLKSIPQFVLTMANGDYTDYGQKLAFTHTPDMFDDDSRPLLGFLDDAMAVRRAAEQQDRYYGHIAIDRHLTLSAPEVARLLSVREGRGVQLVLNTWFSGQPASVPVDGGEPDFLMRIARRDFNTYGPDAGYLLTGVPAVETVIDGGKNVWLLLASANPAGVVSAMMAGSQRKSAAGCRFVRCPKRLIPLRGLLGDMFEPDGEGQVIAGDDIALFARTLLPQLVGAGLLEASEIPRELAELSPTECSLQFYLDRDEHGVQCEVKARYGDAIVPLLPDGPTVHARDERSIPLSRGVIGRDFDAEHLAIDVVREFFTMPDQRKRVAAATHQTVNGFRTPAARKTAKQFVPDAATIDRDDTTQIVRLFDEGLPALKEVGEVFTTPAFDRLIAPKPPSVKVGLSIKGNLVEISPLADEVPPDEVGALLSSYRRRQRFHQLKDGTLVKLSGANLSTLDRLASDLDLSEQQLNSGLIELPGGRAFLLDGELPDDGSDVVKDASFTEYIDDLKIIDPKSYEVPDSLKHILRPYQVEGFQWLNTLCDKGFGGILADEMGLGKSVQLIALLLSRYHNESSGMPTAQGMDAGNAGNSESAVTGHITFDSEDGGSHPSLIVCPASLVYNWGAEFAKFAPSFNAVVVAGTKAERRTAIGRAFRADEPTVLITSYDLLRRDVDDYTANEQRFNVMALDEAQYIKNHTTKIAKAVKAVAADHRFALTGTPIENRLSELWSIFDFLMPGLLGSYKRFHERYELPISNARAADGSTAEGRAAAQVNPEAARVSRQLQSLVGVFIKRRLKSQVLTDLPDKLETTLTVQLAGEQRKLYAAHEQRLRMQLEHSEEADFNTSKIRILAELTKLRQICCDPRLLYADAKDQSAKLAAITELVETCVNEGKKALIFSQFTSFLDLIAERFDAQGLRYYTITGSTPKKKRLELVDQFNADDTPAFLISLKAGNTGLNLTGASVVIHADPWWNAAAQDQATDRAHRIGQTEDVNVYQVVAKDTIEERILELQHTKSELARQFTDASLLADEAGTGASALTEAPASIATLTKDDLLNLLG | failed
MSKHTKFSPEVRDRAIRMVYEVRESRTSQWAAIEAVASKIGCTAQTLSSWIRKAAAPAAPSASGTDARVKELEREVRELKRANEILKVASAFSAQAELDRRLK | failed
MSKIAIIVDSSSYIPKDQLKKHHIYVIDNPIIFGETIYHEFNWPVNADFYQQMATTPIQPTTSQPAPGDFEAAFQAAKDDGYKQALVITLSSGFSGTFLNTSAIASSHSDIDIHVWDSRIACLGAGNQALLAAYLAEKGIGIDEILSKLQILRSRTGVFFVVDSISHLQRTGRLSGGQALVAGLLNIKPILNINTNKQGKIDAVAKTRKMSGAWRYIEKHFAKIADNYQRAGWPMRVSILDADNPELADAWLKRAEKRWPEIIFERGIIGPLVGVHIGGKAVGLIWAEDYKRLED | failed
MSKIASEVVATTLNDWYIAIKKQKVDESIKYYSEIKKLFDEMEEDQEVLAYYSLLEERHKMLLHSSRGEPLQKHTYFTEDNQNFITKTNDKLEYNFYLFEAMYEAYNKNYDRAINLYGLAEKKLAEIPDEIEAAEFYSKVSYLYTLVKQSIVAQHYIKNAISIYKRHPDYKCKLATSTMIAAANYADMKRFEEAEQYYLEAIDIAKETKDEFLKAQLFHNLSIVYSDWNKPDKCIESLEKAIGNESWLHSIYYINSLFMMIKELFKIDEKMKAINFYNKAQERLILMENKVYEAKISILYNLYCGELKNNFNNCISNIEFLKQQNELESVDELSYIAAKRFESIGAFEEATSFFNAKIWAEQKMNQVEGIL | failed
MSKIEIFEAAGCCATSSVVVSDEAVKWNASAEWAKKHGVNIQRYSLAKNPQQFLNTPVIRAFLNTSGMESLPATLLDGQLVMAGKLPSREDIARWAGISLTQDWNEDSTQPRCCSIPRMP | failed
MSKIKWSNLWKGFAMGTTDLVPGVSGGTIALLLGIYDDFIRSISGLFSKRFWESLKFLLPIGIGMVVAIGLLSKLINYLLSTHTVPTMFFFVGLIGGIIPYLLKTSRFKHTFTTPHYLLLVVGIIVIVMMTVMNSGDKHAGETLSLSTGLILKYFIAGACASSAMLLPGISGSFMLLVFGVYGTIMYAISEFVSLNFAALPILITVGCGVLFGFLCSSKLIQYLLSYYTYLTYALIIGFVIGSLYAVFPGLPSTIMIWIVSIVTLLLGFVISYRLGRLTAD | failed
MSKKGFFEYKLSKEIVRALTGLGYDHPTEVQGEVIPVALQKKDLVVKSQTGSGKTASFGIPLCEMVEWEENKPQALVLTPTRELAVQVKEDITNIGRFKRIKAAAIYGKSPFARQKLELKQKTHIVVGTPGRVLDHIEKGTLSLERLKYLVIDEADEMLNMGFIDQVEAIIDELPTNRMTMLFSATLPEDVERLSRTYMNAPTHIEIKAAGITTDKIEHTLFEAIEDEKFSLLKDVTTIENPDSCIIFCRTQENVDHVYRQLKRANYPCDKIHGGMVQEDRFEVMDDFRKGKFRYLVATDVAARGIDIDNITHVINYDIPLEKESYVHRTGRTGRAGNSGKAITFITPYENRFLEEIEEYIGFEIPKAIGPSKEEVMKGKAAFEEKIHAKPIIKKDKNADINKGIMKLYFNGGKKKKIRAVDFVGTIAKIKGVTAEDIGIITIQDNVSYVEILNGKGPLVLKVMKTTTIKGKQLKVHEAIK | failed
MSKKPPNRPGITFEIGARLEALDYLQKWYPSRIEKIDYEEGKMLVHFERWSHRYDEWIYWDSNRLRPLERPALRKEGLKDE | not failed
MSKKSVLITSLMLFSMFFGAGNLIFPPMLGLSAGTNYLPAILGFLATSVLLPVLAIIAVVLSGENVKDMASRGGKIFGLVFPIAAYLSIGAFYALPRTGAVSYSTAVGVDNALYSGLFNFVFFAVALALSWNPNGIADKLGKWLTPALLTLIVVLVVLSVAKLDGTPGEPSSAYAQQPAGAGLLEGYMTMDAIAALAFGIVVISAFKYQKVNKVRTATVVSAFIAGILLALVYLGLGSIGQVVNGEFADGTAILNYAALSTMGQAGRIMFVAILILACMTTAVGLISATSEFFNSLLPGVKYHVWATVFALISFGVATMGLDTVLAVAAPVISFIYPSAITLVFLSLIEPLLFRLKWTYLFGIWTAVVWALFMSIPALNPFIEWAPLHSMSLGWVVPVLVASAIGLAIDWNKKGAQSVAKKESISV | failed
MSKKVIADVFLEVANAIESGEFGKKVKIGVTTLGSEHGVENMVNGAQLAKSNLFDIVLIGPKVETDLEVVEVNDEKEMHAKMEELLDSGYIDACVTMHYNFPIGVSTVGRVITPAKGKEMILATTTGTSATNRIEAMVRNAIYGIATAKSMGNKCPKVGILNVDGARQVEKCLKELKDNGYDMEFADSIRADGGCVMRGNDLLVGAPDVMVTDTLSGNIFMKVFSSYTTGGDYEAQGFGYGPGVGEDYDRKVLIVSRASGSPVVANALKYAYDVVKGDISNVARNEFAKVKKAKFDDIISSLTKKEVKAEKVEVKMPDKEIVTRQIAGVDIMDLEDAVSELWKNGIYAESGMGCTGPIVLVNEAKGDLAVETLVKAGYTAK | failed
MSKLIVPQWPQPKGVAACSSTRIGGVSLPPYDSLNLGAHCGDNPDHVEENRKRLFAAGNLPSKPVWLEQVHGKDVLKLTGEPYASKRADASYSNTPGTVCAVMTADCLPVLFCNRAGTEVAAAHAGWRGLCAGVLEETVSCFADNPENILAWLGPAIGPRAFEVGGEVREAFMAVDAKASAAFIQHGDKYLADIYQLARQRLANVGVEQIFGGDRCTYTENETFFSYRRDKTTGRMASFIWLI | not failed
MSKLSIRNLTKIFGPHPEKALGLLEQGLGKEEIHRRTSHAVGVDRASFDVEEGEIVVVMGLSGSGKSTLVRCLNRLIEPTAGTVTVDGRDVTSMPVDELRRLRQRSFGMVFQNFALFPHRTVLQNAAFGLEAMGVPRAERERQAMVSLERVGLAEWAASRPAQLSGGMQQRVGLARALSLDPDILLMDEAFSALDPLIRRDMQDELLRLQDDLQKTIVFISHDLDEALKLGDRIVLMRDGAVVQIGTPEDILTNPADDYVARFVGEADVTKVLTAGSVMKRSEAVAVLGIDGPRTALRKMRRNAIATLFVLDERHRLVGLITADDAARLAAEGVRELGSIVRRDIATVPPEAPATELISLMADLPHPLAVVDERGRLAGVIVRGLLLGALAERGGVALEHHHHHH | not failed
MSKNIGLNAIEMSYLRQSLSLSAAQVGQLTNHSEAEVLAWENAETQAPELAQKKLLDIDDIIEMQVLNTTDGIEALFKKEPKRHLAFVVYPTQAIYTQYNPEFLSSLPLTELYNTAAWRIKKECKLVLEVDVSLINLNVEAYKAYREQNGLSESRESRAKWAATQL | not failed
MSKNYQVLAKKIIDIVGVDNVESVTHCQTRLRFVVKDPKQIDKAALEDLDEVKGVFFGSGQYQVIIGTGVVNDVYDAIEKLHLVNAIYSQETTTTPTPDNQKSPLQRFMAMLSGIFIPIIPVIAATGLFLGLQSALTNNQVLQLFGTSSAAIPASLNTVISVLTGTVFSFLPALIVWSTFRYFKGTPIVGIVIGLMLVSPSLPNAYSVAGGTAKAIMLFDRIPVIGSQGSVLTALVAGFLGSKLEHYFHKHVPNVLDQILTPFLTMLVTFGIMILGVGPVVHWIENVMISGVEGLINLPFGIGGFLIGAAYPLMVLVGIHQMMIAIETSLLAATKLNPLITLEAMYGFANLGVALAMILRAKSQKAKANFIGAFSSQLFGVSEPTLFGVLIRYNFKPLVVTVLTSGIGAGVLSVMSVAANSYGLAVVPSYLMYIYNVRDLLIYTVVSLLTVAVAFIATNMFAIPKDILKSDQVQPKIVDDTIFSPVSGKSIALSTVNDPVFASKMMGDGIAIKPQEQGPVKVYAPQSGQMSVVADTGHAYGLTTNNGVELLIHIGIDTVSLKGQGFKVIVKPGQTVQKGDLLGEFDSTVLKAANLDDTVMVIVTNSKNYQRIESEPNQSIQSGAALLAIQGRPEMTTATAS | failed
MSKPFMFEKPFGMRDTLPEWYKTKKNICDQMTEEINLWGYDMIETPTLEYYETVGVVSAILDQQLFKLLDQQGNTLVLRPDMTAPIARLVASSLKDRAYPLRLAYQSNVYRAQQNEGGKPAEFEQLGVELIGDGTASADGEVIALMIAALKRAGLSEFKVAIGHVGYVNALLMDVVGNEQRADRLRRFLYEKNYVGYREHVKSLNLSTIDKSRLMNLLSLRGGRAAIEEARGLIQTEKGKTALAEMTKLYEVLESYGASEYVKFDLTLVLHMSYYTGVVFEGYGNRLGVPLCSGGRYDELLSKFHRPAQATGFGVRIDLLVEALNGEIISNGHEQTCILFSNERRFEAIELARKKRANGEAVVLQDLAGVTDVDAMSSNYQDVIYCIGTAGRGGEDA | not failed
